Test results: the nanobody polyreactivity screen of Harvey et al. (2022)

Assay: yeast display, Sf9 membrane polyspecificity reagent, FACS + sequencing; frameworks hold sequencing errors
In short: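 Galactose induction of a Saccharomyces cerevisiae BJ5465 synthetic nanobody display library ran 36–48 hours. The cells were then stained for 1 hour at 4 °C with 10% biotinylated, detergent-solubilized Sf9 membrane reagent, pulled down on streptavidin microbeads and FACS-sorted into low and high (top ~1%) gates on expression and reagent-binding fluorescence. Labels for polyreactivity follow the gate of origin.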

Row | Sequence | polyreactivity (PSR sort gate)
1 | QVQLVESGGGLVQAGGSLRLSCAASGRIFNRYAMGWYRQAPGKERELVAAITSGGSTYYADSVKGRFTISRDNAKNTVYLPMNSLKREDTAFYYCAALPRSNSYGYCGQGTQVTVSS | high polyreactivity
2 | QVQLVESGGGLVQAGGSLSLSCAASGSTLRYYDMGWYRQAPGKERELVAAISRGGSTYYADSVKGRFTISRDNAKNTVYLQMNSLKPEDTAVYYCNKEYPSSYEYDYWGQGTQVTVSS | low polyreactivity
3 | QVQLAESGGGLVQAGGSLRLSCAASGSTFPRNPMGWYRQAPGKERELVATITSSGGGTYYADSVKGRFTISRDNAKITVYLQMNSLKPEDTAVYYCNADGPAGDAFDYWGQGTQVTVSS | low polyreactivity
4 | QDQLVESGGGLVQAGGSLRLSCAASGSTFSYNMGWYRQAPGKERELVARITRGGGSTYYADSVKGRFTISRDNAKNTVYLQMNSLKPEDTAVYYCAADRYFRYYYWGQGTQVTVSS | high polyreactivity
5 | QVQLVESGGGLVQAGGSLRLSWAASGSIFYWNAMGWYRQAPGKERELVATITITTSTNYADSVKGRFTISRDNAKNTVYLQMNSLKPEDTAVYYCNAGAPYRYLDEYNYWGQGTQVTVSS | low polyreactivity
6 | QVQLVESGGGLVQAGGSLRLSCGASGYIFDRYPMGWYRQAPGKEREVVASISRRGGSTYYADSVKGRFTISRDNAKNTVYLQMNSLKPEATAVYYCAAKWPFRRSAVVRYDYWGQGTQVTVSS | high polyreactivity
7 | QVQLVESGGGLVQARGSLRLSCASSGITLYFNTMGCYRQPPGKESELVASISGGSSTYYADSVKGRFTISRDNAKNTVYLQMNSLKPEDTAVYYCNAQGSLFRGWFDYDYWGLGTQVTVSS | low polyreactivity
8 | QVQLVESGGGLVQAGGSLRLSCAASGRTFVRNAMGWYRPAPGKERELVAAISSIGDSTYYADSVKGRFTISRDNAKNTVYLQMNSLKPEDTAVYYCAAEWVTSYYNYYHWGQGTQVTVSS | low polyreactivity
9 | QVQLVESGGGLVQAGGSLRLSCAASGRIFWNYAMGGYRQAPGKERELVASINWSGGSTYYADSVKGRFTISRDNAKNTVYLQMNSLKPEDTAVYYCNKDGRVYLDHDYWGQGTQVTVSS | low polyreactivity
10 | QVQLVESGGGLVQAGGRLRLSCADSGIIFRAYTIGWYRQATGKERELVAGITSGGSTYYADSVKGRFTISRDNAKNTVYLQMNSLKPEDTAVYYCATYYGRWTPIPYEYWGQGTQVTVSS | high polyreactivity
11 | QVQLVESGGGLVQAGGSLRLSCAASGTFHKYAMGWYRQAPGKERELVASISRSGGSTSYADSVKGRFTISRDNAKNTVYLQMNSLKPEDTAVYYCNAYQSSGRYRNSYGYWGQGTQVTVSS | high polyreactivity
12 | QVQLVESGGGLVQAGGSLRLSCAASGSTFDRYDMVWYRQAPGKETELVAAITRRGGSTYYADSVKGRFTFSRDNAKNTVYLQMNSLQPEDTAVYYCNAKHFAYSVAHPYLRYGYDYWGQGTHVTVSS | low polyreactivity
13 | QVQLVESGGGLDQAGCSLRISCAASGRIFIQNTMGWYRQAPGKERELVAAITRSGGRTYYADSVKGRFTFSRDNAKNTVYLQMNSLKPEDTAVYYCNRRPATRAYLYDYWGQGTQVTVSS | high polyreactivity
14 | QVQLVESGGGLVQAGGSLRLSCAASGITFGWYAMGWYRQAPGKERELVASISSSGSTNYADSVKGRFTISRDNAKNTVYLQMNSLKPEDTAVYYCNKDYLLRHYYIYVIEGDYWGQGTQVTVSS | low polyreactivity
15 | QVQLVESGGGLVQAGGSLRLSCAPSGITFFWKAKGWYRQAPGKERELVAAISSGAGTTYADSVKGRFTISRDNAKNTVYLQMNSLKPEDTAVYFCAARRYRYAYGPYNYWGQGSQVTVSS | low polyreactivity
16 | QVQLVESGGGLVQAGGSLRVSCAASGFIFYGYTMGWYREAPGKERELVARISRRGGSTYYADSVKGRFTISRDNAKNTVYLQMNSLKPEDTAVYYCATRALGHFDWGQGTQVTVSS | low polyreactivity
17 | QLQLVESGGGLVQAGGSLRLSCAGSGGTFRVYAMGWYRQATGKERALVAAITGRGGSTYYADSVKGRFTISRDTAKNTVYLQMNSLKAEDTAVYYCAAVSFSDGSPYNYWGLGTQVTVSS | low polyreactivity
18 | QVQLVESGLGLLQAGGSLRLSCAASGFIFRLYTMGRYREAPGKVRELVASISSAGSTNYADSVKGRFTISLDNAKNTVYLQMNSLKPDDTAVYDCDKYYGQFYPPTLGYWGQCTQVTVSS | low polyreactivity
19 | QVLLQESGGGLVQAGGSLRLSCAASGTISTDIRMGWYRLAPGKEPEFVASIDGCSTTYYADSVKVRFTISRDNAKNTVYLQMNSVIPEDSAMYYCAAREATEFYLYYWGQGTQVTVSS | low polyreactivity
20 | QVQLVESGGVLVQAGGSLRLSCAASGSIFKRNVMGWYRQAPGKERELVAAITWSGASTYYADSVKGRFTISRDNAKNTVYLQMNSLKPEDTAVYYCAARGPSRRRDGSDYWGQGTQVTVSS | high polyreactivity
21 | QVQLVESGGGLVQAGGSLRLSCAASGSIFGRYAMGWYRQAPGTERELVAAISSGGITYYADSVKGRFTISRDNAKNTVYLQMNSLTPEDTAVYYCAVKYLSWYAKYDSWGQGTQVTVSS | high polyreactivity
22 | QVQLVESGGGLVQAGGSLRLSCAASGRIVKYAMGWYRQAPGKERELVAAISGSGGTTYYADSVKGRFTISRDNAKNTVYLQMNSLKPEDTAVYYCAASRPRPPSSRRMDYWGQGTQVTVSS | high polyreactivity

Row | Sequence | polyreactivity (PSR sort gate)
23 | QVQLVESGGGLVQAGGSLRLSCAASGYIFGGYAMGWNRQAHGKERELVAGISIGVGSTYYADSVKGRFTISRDKAKNTVNLQMNSLKPEDTAVYYCNRDSVGYDYWGQGTQVTVSS | low polyreactivity
24 | QVQLVESGGGLVQAGGSLRLSCAASRIIFSYNPMGWYRQAPGKERELVAASSYGGRTYYAVSVKGRFTISRDNAKNTVDLQMKSLKPEDTAVYYCATRSPHRLYGDYYDYWGLGTQVTVSS | high polyreactivity
25 | QVQLVESGGGLVQAGGSLRLSCAASGSIFYGNAMGWYRQAPGKERELVAAIDGTGASTYYADSVKGRFTISRDNAKNTVYLKMNSLKPEDTAVYYCNKALTSKDYPVRTVERDYWGQGTQVTVSS | low polyreactivity
26 | QDQLVESGGGLVQAGGSLRLSCAASGRIFRRNTQGWSRQAPGKERELVAAITSSGGSTFADSVKGRFTISRDNAKNTVYLQMNSLKPEDTAVYYCATYVAYHRGYRTYDHWGQGTQVTVSS | low polyreactivity
27 | QVQLVESGGGLVQAGGSLRLSCAASGFTFYANAMGWYRQAPGKERELVAAITQGGDSTYFADSVKGRFTISRDNAKKSVYLQLNSLKREDTAVYYCNTDLLCEYDYWGQGTQVTVSS | low polyreactivity
28 | QVQHVESGGGLVQAGGSLRLSCAASGRTFQLYDMGWYRQPHGKDRELVAGITITGGSTYYADSVKGRFTISRDIAKNTVYIQMISLKPEDTAVYYCAARKARPPFPHPFDYYWGQGTQVTVSS | low polyreactivity
29 | QVQLVESGGGIVQAGGSLRLSCAASGNNIGGNAMGWYRQAPGKERELVAAISNSGVRTYYADSVKGRFTISRDNAKNSVDLQMNSLKPEDTAVYYCYVLGNYYGKFDYWGQGTQVTVSS | high polyreactivity
30 | QVQLVESGGGLVQAGGSLRLSCAASGRTFFPYAMGWYRQAPGKEREFVAAITKSDYSTYYADSVKGRFTISRDNAKNTVYLQKNSLKPEDNAVYYCNAGDTQIRFYYWGQGTQVTVSS | low polyreactivity
31 | QVQLVESGGGLVQAGGSLRLSCAASASIFASNAMGLYRQAPGKERELVAAINSADSTNYADSVKGRFRISRDNAKNTVYLQMNRLKPEDPAVFYCARGLEERYDYWGLGTQVTVSS | low polyreactivity
32 | QVQLVDSGGGLVQAGGSLRLSCAASGSTFVKYTMGWYRQAPGKERELVAVISRSGGSTYYADSVKGRFTISRDNAKNTVYLQMNSLKPEDTAVYYCAAHFSRDFDYWGLGTQVTVSS | high polyreactivity
33 | QVQLVESGGGLVQAGGSLRLSCAASGYIFDSNVMGWYRQAPGKERELVARIRWSGGSTYYADSVKGRFTISRDNAKNTVYLQMNSLKPEDTAVYYCNVVSYYIAGGWYEGDYWGQGTQVTVSS | low polyreactivity
34 | QVQLVETGGGLVQAGGSLRLSCEASGTIFTYAMGWYRQAPRKERELVAVISWSGASTYYADSVKGRLTISRDNAKNSVYLQMNSLKTEDTAVYYCAVYRYYKLVHLYGFDYWGQGTQVTVSS | high polyreactivity
35 | QVQLVESGGGLVQAGGSLRLSSAASGFTFSAYAMGWYRQAPGKEREMVATITSGGSTNYADSVKGRFTISRDNAKNTVYLQMNSLIPEDTAVYYCAADVGWLYYYPKYYYWGQGTQVTVSW | low polyreactivity
36 | QVKLVESGGGLVQAGGSLRLSCAASGNTLYFNAMGWYRQAPGKERELVADISWGGGSTDYADSVKGRFTISRDNAKNTVYLQMNSLKPEDTAVYYCAADILSLPEYDYWGQGTQVTVSS | low polyreactivity
37 | QFQLVESGVGLVQAGGSLRLSCAASGFTFWYYAMGWYRQAPGKERELVARITSRAADTYADSVKGRFTISRDNAKNTVYLQMNSLKPEDTAVYYCNAEFGRARDDDYSGQGTQVTVSS | low polyreactivity
38 | HVQLVESGGGLVQAGGSLRISCAASGLIFVFYAMGWYRQAPGKERELVAAISTSGDRTYYADSVKGRFTISRDNAKNTVYLQMISLKPEDTAVYFCNARRLGYRSGHPGYYWGQGTQVTVSS | high polyreactivity
39 | QVQHVESRGGLVQAGGSLRLSCAASGRIFTGYAMGWYRQAPGKERELVAAITASGGNTYYADSVKGRFTISRVNAKNTVYLQMNSLTPEDTAVFYCAADFYYYKIQYAYWGQGTQVTVSS | low polyreactivity
40 | QVQLVESGGGLVQAGGSLRLSCAASGRIFRSNAMGWYRQAPGKERELVAAISSNGGSTYYADSVKGRFTISRDNAKNPVYLQMNSLKPEDTAVYYCAARVYYPVRYGYWGQGTQVTVSS | high polyreactivity
41 | QVQLVESGGGLVQAGGSLRLSSAASGRIFNGNAMGWSRQSPGKERELVAAISSGGRTYYADSVKGRFTISRDNAKNTVYLQMNSLKPEDTEVYYCAARVILTTYSRNYYYWGQGTQVTVSS | high polyreactivity
42 | QVQLVESGGGLVQAGGSLRLSCAASGRIFYLYAMGWYRQAPGKERELVAAISVSGARTYYADSVKGRFTISRDNAKNTVYLHMNSLKPEDTAVYYCATVGPYRSRRAGDYWGQGTQVTVSS | high polyreactivity
43 | QVQLVESGGGLVQAGGSLRLTSAGSGSTFSYYTMGWYRQAPGKERELVATIRSTGSTTYADSVKGRFTISRDNVKNTVYLQMNSLKPEDTAVYFCAARSRWGGYIHTGYDYWGQGTQVTVSS | low polyreactivity
